Experimental findings from patent US20140087995A1 (published 2014) are described below.

First the molecules themselves.
T1: human calcitonin receptor (human, UniProt P30988 25-474)
T1 construct: whole, on cells; Assay used cell membranes of the transfected BHK cells; also called hCTR; hCT
T1 sequence (looked up): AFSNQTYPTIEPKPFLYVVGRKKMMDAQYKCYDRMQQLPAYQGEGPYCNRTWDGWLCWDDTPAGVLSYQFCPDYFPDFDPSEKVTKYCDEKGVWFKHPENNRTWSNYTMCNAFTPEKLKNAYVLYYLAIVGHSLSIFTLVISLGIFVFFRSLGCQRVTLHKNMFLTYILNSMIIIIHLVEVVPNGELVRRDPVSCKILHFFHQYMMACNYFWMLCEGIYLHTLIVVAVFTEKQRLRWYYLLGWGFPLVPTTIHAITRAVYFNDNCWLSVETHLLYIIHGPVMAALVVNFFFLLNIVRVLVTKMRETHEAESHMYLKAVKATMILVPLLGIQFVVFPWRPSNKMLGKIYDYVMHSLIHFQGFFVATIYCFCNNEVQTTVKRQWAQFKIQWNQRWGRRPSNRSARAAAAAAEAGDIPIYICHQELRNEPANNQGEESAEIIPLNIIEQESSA

B1: N^ε1-[2-[2-[2-[[(4S)-4-carboxy-4-(19-carboxynonadecanoylamino)butanoyl]amino]ethoxy]ethoxy]acetyl]-[Arg17,Pro21,Pro27]-h-amylin (peptide)
peptide: K([AEEA-γGlu-C20 diacid])CNTATCATQRLANFLRHSSPNFGAIPSSTNVGSNTY-NH2
modifications: disulfide 2-7; N-terminus assumed
SMILES: CC[C@H](C)[C@H](NC(=O)[C@H](C)NC(=O)CNC(=O)[C@H](Cc1ccccc1)NC(=O)[C@H](CC(N)=O)NC(=O)[C@@H]1CCCN1C(=O)[C@H](CO)NC(=O)[C@H](CO)NC(=O)[C@H](Cc1c[nH]cn1)NC(=O)[C@H](CCCNC(=N)N)NC(=O)[C@H](CC(C)C)NC(=O)[C@H](Cc1ccccc1)NC(=O)[C@H](CC(N)=O)NC(=O)[C@H](C)NC(=O)[C@H](CC(C)C)NC(=O)[C@H](CCCNC(=N)N)NC(=O)[C@H](CCC(N)=O)NC(=O)[C@@H](NC(=O)[C@H](C)NC(=O)[C@@H]1CSSC[C@H](NC(=O)[C@@H](N)CCCCNC(=O)COCCOCCNC(=O)CC[C@H](NC(=O)CCCCCCCCCCCCCCCCCCC(=O)O)C(=O)O)C(=O)N[C@@H](CC(N)=O)C(=O)N[C@@H]([C@@H](C)O)C(=O)N[C@@H](C)C(=O)N[C@@H]([C@@H](C)O)C(=O)N1)[C@@H](C)O)C(=O)N1CCC[C@H]1C(=O)N[C@@H](CO)C(=O)N[C@@H](CO)C(=O)N[C@H](C(=O)N[C@@H](CC(N)=O)C(=O)N[C@H](C(=O)NCC(=O)N[C@@H](CO)C(=O)N[C@@H](CC(N)=O)C(=O)N[C@H](C(=O)N[C@@H](Cc1ccc(O)cc1)C(N)=O)[C@@H](C)O)C(C)C)[C@@H](C)O
notes: Synthetic analogue; also called compound 41
B2: N^ε1-[(4S)-4-carboxy-4-[[(4S)-4-carboxy-4-(19-carboxynonadecanoylamino)butanoyl]amino]butanoyl]-[Asp14,Arg17,Pro21,Pro26,Asp35]-h-amylin (peptide)
peptide: K([γGlu-γGlu-C20 diacid])CNTATCATQRLADFLRHSSPNFGAPLSSTNVGSDTY-NH2
modifications: disulfide 2-7; N-terminus assumed
SMILES: CC(C)C[C@H](NC(=O)[C@H](CCCNC(=N)N)NC(=O)[C@H](CCC(N)=O)NC(=O)[C@@H](NC(=O)[C@H](C)NC(=O)[C@@H]1CSSC[C@H](NC(=O)[C@@H](N)CCCCNC(=O)CC[C@H](NC(=O)CC[C@H](NC(=O)CCCCCCCCCCCCCCCCCCC(=O)O)C(=O)O)C(=O)O)C(=O)N[C@@H](CC(N)=O)C(=O)N[C@@H]([C@@H](C)O)C(=O)N[C@@H](C)C(=O)N[C@@H]([C@@H](C)O)C(=O)N1)[C@@H](C)O)C(=O)N[C@@H](C)C(=O)N[C@@H](CC(=O)O)C(=O)N[C@@H](Cc1ccccc1)C(=O)N[C@@H](CC(C)C)C(=O)N[C@@H](CCCNC(=N)N)C(=O)N[C@@H](Cc1c[nH]cn1)C(=O)N[C@@H](CO)C(=O)N[C@@H](CO)C(=O)N1CCC[C@H]1C(=O)N[C@@H](CC(N)=O)C(=O)N[C@@H](Cc1ccccc1)C(=O)NCC(=O)N[C@@H](C)C(=O)N1CCC[C@H]1C(=O)N[C@@H](CC(C)C)C(=O)N[C@@H](CO)C(=O)N[C@@H](CO)C(=O)N[C@H](C(=O)N[C@@H](CC(N)=O)C(=O)N[C@H](C(=O)NCC(=O)N[C@@H](CO)C(=O)N[C@@H](CC(=O)O)C(=O)N[C@H](C(=O)N[C@@H](Cc1ccc(O)cc1)C(N)=O)[C@@H](C)O)C(C)C)[C@@H](C)O
notes: Synthetic analogue; also called compound 1
B3: N^ε1-[(4S)-4-carboxy-4-[[(4S)-4-carboxy-4-(19-carboxynonadecanoylamino)butanoyl]amino]butanoyl]-[Asp14,Arg17,Pro22,Pro26,Asp35]-h-amylin (peptide)
peptide: K([γGlu-γGlu-C20 diacid])CNTATCATQRLADFLRHSSNPFGAPLSSTNVGSDTY-NH2
modifications: disulfide 2-7; N-terminus assumed
SMILES: CC(C)C[C@H](NC(=O)[C@H](CCCNC(=N)N)NC(=O)[C@H](CCC(N)=O)NC(=O)[C@@H](NC(=O)[C@H](C)NC(=O)[C@@H]1CSSC[C@H](NC(=O)[C@@H](N)CCCCNC(=O)CC[C@H](NC(=O)CC[C@H](NC(=O)CCCCCCCCCCCCCCCCCCC(=O)O)C(=O)O)C(=O)O)C(=O)N[C@@H](CC(N)=O)C(=O)N[C@@H]([C@@H](C)O)C(=O)N[C@@H](C)C(=O)N[C@@H]([C@@H](C)O)C(=O)N1)[C@@H](C)O)C(=O)N[C@@H](C)C(=O)N[C@@H](CC(=O)O)C(=O)N[C@@H](Cc1ccccc1)C(=O)N[C@@H](CC(C)C)C(=O)N[C@@H](CCCNC(=N)N)C(=O)N[C@@H](Cc1c[nH]cn1)C(=O)N[C@@H](CO)C(=O)N[C@@H](CO)C(=O)N[C@@H](CC(N)=O)C(=O)N1CCC[C@H]1C(=O)N[C@@H](Cc1ccccc1)C(=O)NCC(=O)N[C@@H](C)C(=O)N1CCC[C@H]1C(=O)N[C@@H](CC(C)C)C(=O)N[C@@H](CO)C(=O)N[C@@H](CO)C(=O)N[C@H](C(=O)N[C@@H](CC(N)=O)C(=O)N[C@H](C(=O)NCC(=O)N[C@@H](CO)C(=O)N[C@@H](CC(=O)O)C(=O)N[C@H](C(=O)N[C@@H](Cc1ccc(O)cc1)C(N)=O)[C@@H](C)O)C(C)C)[C@@H](C)O
notes: Synthetic analogue; also called compound 3
B4: N{Alpha-1}-[(4S)-4-carboxy-4-(19-carboxynonadecanoylamino)butanoyl]-[Glu14,Arg17,Pro21,Pro27,Lys34]-h-amylin (peptide)
peptide: {C20 diacid-γGlu}-KCNTATCATQRLAEFLRHSSPNFGAIPSSTNVGKNTY-NH2
modifications: disulfide 2-7
SMILES: CC[C@H](C)[C@H](NC(=O)[C@H](C)NC(=O)CNC(=O)[C@H](Cc1ccccc1)NC(=O)[C@H](CC(N)=O)NC(=O)[C@@H]1CCCN1C(=O)[C@H](CO)NC(=O)[C@H](CO)NC(=O)[C@H](Cc1c[nH]cn1)NC(=O)[C@H](CCCNC(=N)N)NC(=O)[C@H](CC(C)C)NC(=O)[C@H](Cc1ccccc1)NC(=O)[C@H](CCC(=O)O)NC(=O)[C@H](C)NC(=O)[C@H](CC(C)C)NC(=O)[C@H](CCCNC(=N)N)NC(=O)[C@H](CCC(N)=O)NC(=O)[C@@H](NC(=O)[C@H](C)NC(=O)[C@@H]1CSSC[C@H](NC(=O)[C@H](CCCCN)NC(=O)CC[C@H](NC(=O)CCCCCCCCCCCCCCCCCCC(=O)O)C(=O)O)C(=O)N[C@@H](CC(N)=O)C(=O)N[C@@H]([C@@H](C)O)C(=O)N[C@@H](C)C(=O)N[C@@H]([C@@H](C)O)C(=O)N1)[C@@H](C)O)C(=O)N1CCC[C@H]1C(=O)N[C@@H](CO)C(=O)N[C@@H](CO)C(=O)N[C@H](C(=O)N[C@@H](CC(N)=O)C(=O)N[C@H](C(=O)NCC(=O)N[C@@H](CCCCN)C(=O)N[C@@H](CC(N)=O)C(=O)N[C@H](C(=O)N[C@@H](Cc1ccc(O)cc1)C(N)=O)[C@@H](C)O)C(C)C)[C@@H](C)O
notes: Synthetic analogue; also called compound 36
B5: N^α1-[(4S)-4-carboxy-4-(19-carboxynonadecanoylamino)butanoyl]-[Glu14,Arg17,Pro21,Pro25,Pro28,Pro29]-h-amylin (peptide)
peptide: {C20 diacid-γGlu}-KCNTATCATQRLAEFLRHSSPNFGPILPPTNVGSNTY-NH2
modifications: disulfide 2-7
SMILES: CC[C@H](C)[C@H](NC(=O)[C@@H]1CCCN1C(=O)CNC(=O)[C@H](Cc1ccccc1)NC(=O)[C@H](CC(N)=O)NC(=O)[C@@H]1CCCN1C(=O)[C@H](CO)NC(=O)[C@H](CO)NC(=O)[C@H](Cc1c[nH]cn1)NC(=O)[C@H](CCCNC(=N)N)NC(=O)[C@H](CC(C)C)NC(=O)[C@H](Cc1ccccc1)NC(=O)[C@H](CCC(=O)O)NC(=O)[C@H](C)NC(=O)[C@H](CC(C)C)NC(=O)[C@H](CCCNC(=N)N)NC(=O)[C@H](CCC(N)=O)NC(=O)[C@@H](NC(=O)[C@H](C)NC(=O)[C@@H]1CSSC[C@H](NC(=O)[C@H](CCCCN)NC(=O)CC[C@H](NC(=O)CCCCCCCCCCCCCCCCCCC(=O)O)C(=O)O)C(=O)N[C@@H](CC(N)=O)C(=O)N[C@@H]([C@@H](C)O)C(=O)N[C@@H](C)C(=O)N[C@@H]([C@@H](C)O)C(=O)N1)[C@@H](C)O)C(=O)N[C@@H](CC(C)C)C(=O)N1CCC[C@H]1C(=O)N1CCC[C@H]1C(=O)N[C@H](C(=O)N[C@@H](CC(N)=O)C(=O)N[C@H](C(=O)NCC(=O)N[C@@H](CO)C(=O)N[C@@H](CC(N)=O)C(=O)N[C@H](C(=O)N[C@@H](Cc1ccc(O)cc1)C(N)=O)[C@@H](C)O)C(C)C)[C@@H](C)O
notes: Synthetic analogue; also called compound 6

Numbered stars: 1 amine (or outer) side, 2 acyl side, 3 side chain; on linkers, the order of the positions; unused ones are H or OH. Bridge positions count the residues as written; N and C are the ends. Side chains are listed from the residue outwards. Ends that are not written are not given here. * marks the point of attachment. C20 diacid = O=C(O)CCCCCCCCCCCCCCCCCCC(=O)*; γGlu = O=C(O)[C@H](CCC(=O)[*:2])N[*:1]; AEEA = NCCOCCOCC(=O)O

The first test concerns the target T1, human calcitonin receptor. As to the kind of experiment: ratio IC50 hCTR / IC50 hAmylin-R of the two SPA competition assays; reference: human amylin receptor. In a few lines:
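IC₅₀ values were derived by one-site competition analysis of SPA counts. Cell membranes (35 ng/μL) with SPA beads were incubated with test compounds for 120 min at 25° C in Hepes buffer, pH 7.4, containing CaCl2, MgCl₂, OA and Tween20.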
For B1, the “Ratio hCT/hAmylin binding” value stood at 49.9.

For B2, the “Ratio hCT/hAmylin binding” value amounted to 27.6.

For B3, the “Ratio hCT/hAmylin binding” value is 17.3.

Take B4: the “Ratio hCT/hAmylin binding” value was found to be 15.7.

In the case of B5, the “Ratio hCT/hAmylin binding” value was found to be 20.

The next test has as its target T1, human calcitonin receptor. Briefly: SPA radioligand competition (125I-calcitonin), membranes of BHK cells with human calcitonin receptor. A digest of the protocol: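 BHK hCTR membranes 35 ng/μL + SPA beads 0.05 mg/well; buffer 50 mM Hepes pH 7.4, 1 mM CaCl2, 5 mM MgCl₂, 0.1% OA, 0.02% Tween20. 120 min, 25° C., shaking. Scintillation count; IC50 by one-site binding competition.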
For orientation: Displacement assays read how much labelled ligand stays bound in the presence of the test substance.
Take B1: the IC50 came to 0.0213 µM.

Take B2: the half-maximal inhibitory concentration (IC50) worked out at 0.0325 µM.

With B3, the half-maximal inhibitory concentration (IC50) turned out to be 0.0195 µM.

For the molecule B4, the IC50 was 0.0063 µM.

Consider B5, for which the IC50 stood at 0.0199 µM.

In general, IC50 refers to the concentration needed to halve the response being measured.
